{"source": "paper PMC6092121", "about": "“Structure of mouse protocadherin 15 of the stereocilia tip link in complex with LHFPL5” (eLife, 2018)", "binders": {"B1": {"name": "PCDH15 EC11-ELAUC (domain or fragment, mouse (Mus musculus), UniProt Q99PJ1 27-30, looked up)", "chain": "QYDDHPPVFQKKFYIGGVSEDARMFASVLRVKATDRDTGNYSAMAYRLIIPPIKEGKEGFVVETYTGLIKTAMLFHNMRRSYFKFQVIATDDYGKGLSGKADVLVSVVNQLDMQVIVSNVPPTLVEKKIEDLTEILDRYVQEQIPGAKVVVESIGARRHGDAYSLEDYSKCDLTVYAIDPQTNRAIDRNELFKFLDGKLLDINKDFQPYYGEGGRILEIRTPEAVTSIKKRGESLGYTEG", "modifications": "treated with PNGase", "notes": "signal peptide in the construct; also called protocadherin 15; source: HEK293S GnTI- cells, BacMam, secreted, purified (TALON, PNGase treatment, SEC; no thrombin digestion); not shown: 8xHis, C-terminal, kept"}, "B2": {"name": "PCDH15_(1EC) (EC11 to CR), purified in complex with LHFPL5 for cryo-EM (domain or fragment, mouse (Mus musculus), UniProt Q99PJ1 27-30, looked up)", "chain": "QYDDHPPVFQKKFYIGGVSEDARMFASVLRVKATDRDTGNYSAMAYRLIIPPIKEGKEGFVVETYTGLIKTAMLFHNMRRSYFKFQVIATDDYGKGLSGKADVLVSVVNQLDMQVIVSNVPPTLVEKKIEDLTEILDRYVQEQIPGAKVVVESIGARRHGDAYSLEDYSKCDLTVYAIDPQTNRAIDRNELFKFLDGKLLDINKDFQPYYGEGGRILEIRTPEAVTSIKKRGESLGYTEGALLALAFIIILCCIPAILVVLVSYRQFKVRQAECTKTARIQSAMPAAKPAAPVPAAPAPPPPPPPPPPGAHLYEELGESAMH", "notes": "signal peptide in the construct; source: HEK293 tsa201 (suspension), BacMam co-infection with LHFPL5, purified (Strep-Tactin, TALON, thrombin, SEC in digitonin); not shown: mVenus, C-terminal, cleaved; 8xHis, C-terminal, cleaved"}, "B3": {"name": "LHFPL5, purified in complex with PCDH15 for cryo-EM (Strep-mCerulean removed) (natural protein, mouse (Mus musculus), UniProt Q4KL25 2-219, looked up)", "chain": "VKLLPAQEAAKIYHTNYVRNSRAVGVMWGTLTICFSVLVMALFIQPYWIGDSVSTPQAGYFGLFSYCVGNVLSSELICKGGPLDFSSIPSRAFKTAMFFVALAMFLIIGSIICFSLFFVCNTATVYKICAWMQLAAATGLMIGCLVYPDGWDSSEVRRMCGEQTGKYTLGHCTIRWAFMLAILSIGDALILSFLAFVLGYRQDKLLPDDYKADGNEEV", "notes": "called full length LHFPL5 in the text; also called TMHS; not shown: Strep, N-terminal, cleaved; mCerulean, N-terminal, cleaved"}, "B4": {"name": "PCDH15_(4EC), purified in complex with LHFPL5 for cryo-EM (domain or fragment, mouse (Mus musculus), UniProt Q99PJ1 27-30, looked up)", "chain": "QYDDSPVFTNSTYTVVVEENLPAGTSFLQIEAKDVDLGANVSYRIRSPEVKHLFALHPFTGELSLLRSLDYEAFPDQEASITFLVEAFDIYGTMPPGIATVTVIVKDMNDYPPVFSKRIYKGMVAPDAVKGTPITTVYAEDADPPGMPASRVRYRVDDVQFPYPASIFDVEEDSGRVVTRVNLNEEPTTIFKLVVVAFDDGEPVMSSSATVRILVLHPGEIPRFTQEEYRPPPVSELAARGTVVGVISAAAINQSIVYSIVAGNEEDKFGINNVTGVIYVNSPLDYETRTSYVLRVQADSLEVVLANLRVPSKSNTAKVYIEIQDENDHPPVFQKKFYIGGVSEDARMFASVLRVKATDRDTGNYSAMAYRLIIPPIKEGKEGFVVETYTGLIKTAMLFHNMRRSYFKFQVIATDDYGKGLSGKADVLVSVVNQLDMQVIVSNVPPTLVEKKIEDLTEILDRYVQEQIPGAKVVVESIGARRHGDAYSLEDYSKCDLTVYAIDPQTNRAIDRNELFKFLDGKLLDINKDFQPYYGEGGRILEIRTPEAVTSIKKRGESLGYTEGALLALAFIIILCCIPAILVVLVSYRQFKVRQAECTKTARIQSAMPAAKPAAPVPAAPAPPPPPPPPPPGAHLYEELGESAMH", "modifications": "N-linked glycosylation (predicted sites; density at EC10 and EC11)", "notes": "signal peptide in the construct; the tag may have stayed on; not shown: mVenus, C-terminal, cleaved; 8xHis, C-terminal, cleaved"}}, "key": {"[1]": {"target": "the molecule itself", "experiment": "AUC; sedimentation velocity, 20°C, 50,000 rpm, absorbance 280 nm, 20 mM Tris pH 8.0, 150 mM NaCl; loading concentrations 0.1-57.8 µM; sw isotherm fitted with a monomer-dimer model; dimer to monomers"}, "[2]": {"target": "the molecule itself", "experiment": "AUC; sedimentation velocity, global direct boundary modelling (Lamm equation, kinetic homo-dimerization model) of samples at 2.3, 7.0 and 11.8 µM; dimer to monomers"}, "[3]": {"target": "the molecule itself", "experiment": "cryo-EM structure; PCDH15_(1EC)-LHFPL5 complex co-expressed and co-purified in digitonin; C2, ~4.5 Å"}, "[4]": {"target": "B3", "experiment": "cryo-EM structure; PCDH15_(1EC)-LHFPL5 complex co-expressed and co-purified in digitonin; C2, ~4.5 Å", "conditions": "both partners purified"}, "[5]": {"target": "the molecule itself", "experiment": "cryo-EM structure; PCDH15_(4EC)-LHFPL5 complex co-expressed and co-purified in digitonin with 1 mM CaCl2; Volta phase plate; straight conformation, C2, ~11.3 Å; domains fitted as rigid bodies"}, "[6]": {"target": "B3", "experiment": "cryo-EM structure; PCDH15_(4EC)-LHFPL5 complex co-expressed and co-purified in digitonin with 1 mM CaCl2; Volta phase plate; straight conformation, C2, ~11.3 Å; domains fitted as rigid bodies", "conditions": "both partners purified"}}, "data": [{"binder": "B1", "values": [{"measurement": "Kd", "setting": "[1]", "value": 5.7, "unit": "µM"}, {"measurement": "stoichiometry N", "setting": "[1]", "value": 2}, {"measurement": "Kd", "setting": "[2]", "value": 6.64, "unit": "µM"}, {"measurement": "koff", "setting": "[2]", "value": 0.00035, "unit": "s⁻¹"}]}, {"binder": "B2", "values": [{"measurement": "stoichiometry N", "setting": "[3]", "value": 2}, {"measurement": "binding result", "setting": "[4]", "value": "binds"}]}, {"binder": "B3", "values": [{"measurement": "stoichiometry N", "setting": "[3]", "value": 2}]}, {"binder": "B4", "values": [{"measurement": "binding result", "setting": "[5]", "value": "binds"}, {"measurement": "binding result", "setting": "[6]", "value": "binds"}]}]}
